In US20250154240A1, “ANTI-HUMAN CXCL1 ANTIBODY” (CHIOME BIOSCIENCE INC., priority 2022, published 2025):

T1: HuCXCL1 (Homo sapiens, UniProt P09341)
T1 construct: made in house; host or cells: Expi293 expression system (transient), protein from the culture supernatant
T1 sequence (P09341 35-107): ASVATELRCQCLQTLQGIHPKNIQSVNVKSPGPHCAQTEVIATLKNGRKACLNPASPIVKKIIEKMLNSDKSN

B1: 5A-5E11: mouse monoclonal anti-HuCXCL1 antibody clone; VH SEQ ID NO: 17, VL SEQ ID NO: 21 (antibody, listed as Mus musculus, V domains shown)
VH: QVQLQQSGAELVRPGSSVKISCKASGYAFSDYWMNWVKQRPGQGLEWIGQIYPGDGDTNYNGKFKGKGTLTADKSSSTAYMQLNSLTSEDSAVYFCARERDYDVAMDYWGQGTSVTVSS
VL: DIQMTQSPSSLSASLGGKVTITCKASQDINKYIAWFQHKPGKGPRLVIHYTSILQPGIPSRFSGVGSGRDYSFSIRNLEPEDIATYYCLQYDNLPWTFGGGTKLEIK
B2: 1A-7H10: mouse monoclonal anti-HuCXCL1 antibody clone; VH SEQ ID NO: 1, VL SEQ ID NO: 5 (antibody, listed as Mus musculus, V domains shown)
VH: QVQLKESGPVLVAPSQSLSITCSVSGFSSTTYGVHWVRQPPGQGLEWLGVIWAGGSTNYNSALMSRLSISKDNSKSQVFLKMNSLQTDDTAMYYCATQYHYPFAYWGQGTLVTVSA
VL: NIVMTQSPKSMSMSVGERVTLSCKASENVGIYVSWYQQKPEQSPKLMIYGASNRNTGVPDRFTGSGSATDFTLTISSVQAEDLADYYCGQSYSYPLTFGAGTKLELK
B3: 028-8-12: human antibody against CXCL1 from the human ADLib technique; VH SEQ ID NO: 25, VL SEQ ID NO: 29 (antibody, listed as Gallus gallus, V domains shown)
VH: EVQLLESGGGLVQPGGSLRLSCAASGFTFSELSMSWVRQAPGKGLEWVSAISGSGGSTYYADSVKGRFTISRDNSKNTLYLQMNSLRAEDTAVYYCAREGGRLEPYYYYYAMDVWGQGTPVTVSS
VL: DIQMTQSPSSLSASVGDRVTITCRASQSISDNLHWYQQKPGKAPKLLIYDASNLESGVPSRFSGSGSGTDFTLTINSLQPEDFATYYCQQYYSTPLTFGQGTKLEIK
B4: Hu5A-5E11: humanized antibody VH1/VL1; VH SEQ ID NO: 76, VL SEQ ID NO: 78 (antibody, V domains shown)
VH: QVQLVQSGAEVKKPGSSVKVSCKASGYAFSDYWMNWVRQAPGQGLEWIGQIYPGSGDTNYNAKFKGKGTITADKSTSTAYMELSSLRSEDTAVYYCARERDYDVAMDYWGQGTTVTVSS
VL: DIQMTQSPSSLSASVGDRVTITCKASQDINKYIAWFQQKPGKAPKLVIHYTSILQPGVPSRFSGSGSGTDYTFTISSLQPEDIATYYCLQYDNLPWTFGGGTKVEIK
B5: 4A-2F7: mouse monoclonal anti-HuCXCL1 antibody clone; VH SEQ ID NO: 9, VL SEQ ID NO: 13 (antibody, listed as Mus musculus, V domains shown)
VH: QVTLKESGPGILKPSQTLSLTCSFSGFSLSTSGMGVDWIRQPSGKGLEWLAHIWWDDDKYYNPSLKSQLTISKDTSRNQVFLKITSVDTADTATYYCARSYGYDMDYYAMDYWGQGTSVTVSS
VL: DIQMTQSPSSLSASLGERVSLTCRASQEISGYLSWLQQKPDGTIKRLIYAASTLDSGVPKRFSGSRSGSDYSLTISSLESEDFADYYCLQYASYPPWTFGGGTKLEIK

Tests used:
CXCR2-expressing cells = assay: In vivo migration inhibitory activity test on CXCR2-expressing cells, OCUM-12 orthotopic transplantation (prevention model); parameters: species or system mouse; details: for Migration of CXCR2-expressing cells (CXCR2-positive cells per unit area in gastric tumor sections): 20 mg/kg intraperitoneally twice a week, compared to PBS or mouse IgG1
Text: (§1) The stomachs after measurement of the tumor size in [3-1] above were excised and fixed overnight at room temperature with a 10% neutral buffered formalin solution (Wako Pure Chemical Industries, Ltd., Japan), followed by replacement with PBS. Then, paraffin embedding and section preparation were outsourced to Applied Medical Research Laboratory, Japan. The prepared gastric tumor sections were immunohistologically stained with an anti-CXCR2 antibody to evaluate in vivo CXCR2 cell migration inhibitory activity. The sections were deparaffinized and rehydrated, and then treated to inactivate endogenous peroxidase. After antigen activation treatment, the sections were blocked with PBS containing 2% skimmed milk and 0.1% Tween-20, and reacted overnight at 4° C. with an anti-CXCR2 antibody (Biorbyt) as a primary antibody, which had been diluted to 0.3 μg/mL with the blocking solution. After washing with PBS containing 0.1% Tween-20, the sections were reacted at room temperature for 1 hour with an HRP-labeled goat anti-rabbit IgG antibody (Abcam) as a secondary antibody. After washing with a washing solution, a simple stain DAB solution (5052, Nichirei Corporation, Japan) was used to cause color development. After images of the stained tissues were captured with an Explore (Olympus Corporation, Japan), imaging software CellSens (Olympus Corporation, Japan) was used to calculate CXCR2-positive cells per unit area.
Navarixin is among small molecular compounds that act on CXCR2 and inhibit CXCL1-CXCR2 signaling. […] Then, using a model with OCUM-12 orthotopic transplantation, the migration inhibition of CXCR2-expressing cells and antitumor activity were evaluated in vivo for Navarixin. As a vehicle, ultrapure water containing 20% 2-hydroxypropyl-β-cyclodextrin (FUJIFILM Wako Pure Chemical Corporation, Japan) was used. Navarixin (MedChemExpress) was dissolved in ultrapure water containing 20% 2-hydroxypropyl-β-cyclodextrin, and orally administered at a dose of 100 mg/kg/day in a schedule of once a day for 5 consecutive days, followed by a 2-day withdrawal.
as §1, with “after measurement were excised” for “after measurement of the tumor size in [3-1] above were excised”, “and 0.1% Tween-20 (hereinafter referred to as the blocking solution), and reacted” for “and 0.1% Tween-20, and reacted”, “been diluted 1667-fold with the” for “been diluted to 0.3 μg/mL with the”, “to calculate positive cells per” for “to calculate CXCR2-positive cells per”
The dose-response relationship between antibody dose and in vivo antitumor activity or CXCR2 migration inhibitory activity was evaluated in a xenograft prevention model with OCUM-12 orthotopic transplantation. A prevention model is a model designed to start antibody administration from the day following tumor transplantation. […]

HuCXCL1 = biological target: T1, HuCXCL1; assay: HuCXCL1 binding activity, antigen-immobilized ELISA; details: HuCXCL1 immobilized at 3 μg/mL
Experimental: Antibodies produced from the hybridomas were evaluated for their HuCXCL1 binding activity by ELISA assay using plates on which the antigen (HuCXCL1 protein) used for immunization had been directly immobilized.
To 96-well plates, phosphate-buffered saline (PBS) containing 3 μg/mL of HuCXCL1 was added in a volume of 50 μL per well, and the plates were allowed to stand overnight at 4° C. After removal of the antigen solution, PBS containing 2% skimmed milk and 0.05% Tween-20 (hereinafter referred to as the blocking solution) was added to each well for blocking reaction, and the plates were allowed to stand at room temperature for 1 hour. After removal of the blocking solution, the culture supernatants of the hybridomas or DT40 were each added in a volume of 50 µL per well and reacted at room temperature for 1 hour. After removal of the culture supernatants and washing with PBS containing 0.05% Tween-20, an HRP-labeled secondary antibody diluted with the blocking solution was added and reacted at room temperature for 1 hour. After washing, TMB (Dako) was added as a chromogenic substrate solution to cause color development, and after 10 minutes, 1 N sulfuric acid was added to stop the reaction, followed by measurement of absorbance at 450 nm.

CyCXCL1 = CyCXCL1 binding activity ELISA; parameters: species or system cynomolgus monkey; details: absorbance to CyCXCL1 relative to absorbance to HuCXCL1
CyCXCL1, sequence (as listed by the source): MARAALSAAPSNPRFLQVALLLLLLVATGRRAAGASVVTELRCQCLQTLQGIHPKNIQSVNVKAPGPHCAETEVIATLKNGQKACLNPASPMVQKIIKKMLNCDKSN
Experimental: Binding activity to cynomolgus monkey CXCL1 (CyCXCL1) was evaluated.
The same procedure as shown in [1-1] above was repeated to prepare a CyCXCL1 protein (antigen), except that the amino acid sequence of a HuCXCL1 protein was replaced with the amino acid sequence of a CyCXCL1 protein (Uniprot registration number: QUEAC3; SEQ ID NO: 82).
The evaluation of binding activity to CyCXCL1 was accomplished by ELISA assay. Absorbance was calculated in the same manner as shown in [2-1] above to evaluate antigen-binding activity, except that the protein immobilized on the plates was changed from a HuCXCL1 protein to a CyCXCL1 protein. An antibody whose absorbance to CyCXCL1 was 80% or more of its absorbance to HuCXCL1 was determined to have cross-reactivity and indicated with “o” while an antibody whose absorbance to CyCXCL1 was less than 80% of its absorbance to HuCXCL1 was indicated with “x” in Table A above.

Molecule | Migration of CXCR2-expressing cells (CXCR2-positive cells per unit area in gastric tumor sections) (CXCR2-expressing cells; 3 weeks) | Binding activity to HuCXCL1 ELISA (HuCXCL1) | Binding activity to CyCXCL1 ELISA (CyCXCL1) | Migration of CXCR2-expressing cells (positive cells per unit area) (CXCR2-expressing cells; 400 μg/head intraperitoneally twice a week, 3 weeks, compared to hIgG1 antibody) | Dose at which the migration suppressive effect tended to reach a plateau (CXCR2-expressing cells; prevention model) [μg/head]
B1 | significantly suppress the migration of CXCR2-expressing cells | ∘ | ∘ |  | 
B2 | significantly suppress the migration of CXCR2-expressing cells | ∘ | ∘ |  | 
B3 | significantly suppress the migration of CXCR2-expressing cells | ∘ | ∘ |  | 
B4 |  |  |  | significantly suppress the migration of CXCR2-expressing cells | ≥ 60
B5 | significantly suppress the migration of CXCR2-expressing cells | ∘ | ∘ |  | 
